Data published in US20190062453A1 (Hoffmann-La Roche, published 2019).
Residue numbers refer to the chain shown, from its start.

B1: 18F11_28H1 (bispecific antibody, human IgG1, kappa)
VH (DR5)-Fc part-VH (FAP)-CL chain: not shown
VL (DR5)-kappa light chain: EIVLTQSPGTLSLSPGERATLSCRASQSVSSSYLAWYQQKPGQAPRLLIYGASSRATGIPDRFSGSGSGTDFTLTISRLEPEDFAVYYCQQGQLPPITFGQGTKVEIKRTVAAPSVFIFPPSDEQLKSGTASVVCLLNNFYPREAKVQWKVDNALQSGNSQESVTEQDSKDSTYSLSSTLTLSKADYEKHKVYACEVTHQGLSSPVTKSFNRGEC
VLCH1 (FAP) chain: EIVLTQSPGTLSLSPGERATLSCRASQSVSRSYLAWYQQKPGQAPRLLIIGASTRATGIPDRFSGSGSGTDFTLTISRLEPEDFAVYYCQQGQVIPPTFGQGTKVEIKSSASTKGPSVFPLAPSSKSTSGGTAALGCLVKDYFPEPVTVSWNSGALTSGVHTFPAVLQSSGLYSLSSVVTVPSSSLGTQTYICNVNHKPSNTKVDKKVEPKSCD
notes: Printed as '18F11' on the sheet
B2: DR5TAA-0032 (bispecific antibody, human IgG1, kappa)
HC (DR5-crossed FAP): not shown
LC (DR5): AQVLTQTPSPVSAAVGGTVTINCQASQSVYNNRLAWYQQKPGQPPKLLIYLASTLASGVPSRFKGSGSGTQFTLTISDLQCDDAATYYCAGGYSGNINAFGGGTEVVVKRTVAAPSVFIFPPSDEQLKSGTASVVCLLNNFYPREAKVQWKVDNALQSGNSQESVTEQDSKDSTYSLSSTLTLSKADYEKHKVYACEVTHQGLSSPVTKSFNRGEC
Crossed LC (FAP): B1 VLCH1 (FAP) chain
notes: also called 039-28H1
B3: DR5TAA-0036 (bispecific antibody, human IgG1, kappa)
HC (DR5-crossed FAP): not shown
LC (DR5): ALVMTQTPSSVSAAVGGTVTINCQASQNIYSNLAWFQQKPGQPPKLLIYETSKLASGVPSRFSGSGSGTEFTLTISDLECDDAATYYCQSSWHSISTDCAFGGGTEVVVKRTVAAPSVFIFPPSDEQLKSGTASVVCLLNNFYPREAKVQWKVDNALQSGNSQESVTEQDSKDSTYSLSSTLTLSKADYEKHKVYACEVTHQGLSSPVTKSFNRGEC
Crossed LC (FAP): B1 VLCH1 (FAP) chain
B4: DR5TAA-0034 (bispecific antibody, human IgG1, kappa)
HC (DR5-crossed FAP): not shown
LC (DR5): ALVMTQTPSSTSEPVGGTVTIKCQASQSIGSSLSWYQQTPGQPPKLLIYTASSLASSVPKRFSGSRSGTQFTLTISGVQCADAATYYCLGIDDVRRDDGFAFGGGTEVVVKRTVAAPSVFIFPPSDEQLKSGTASVVCLLNNFYPREAKVQWKVDNALQSGNSQESVTEQDSKDSTYSLSSTLTLSKADYEKHKVYACEVTHQGLSSPVTKSFNRGEC
Crossed LC (FAP): B1 VLCH1 (FAP) chain
notes: also called 298-28H1
B5: DR5TAA-0038 (bispecific antibody, human IgG1, kappa)
VH (DR5)-Fc part-VH (FAP)-CL chain: not shown
VL (DR5)-kappa light chain: B1 VL (DR5)-kappa light chain with Q93S, L94Q
VLCH1 (FAP) chain: B1 VLCH1 (FAP) chain
B6: DR5TAA-0037 (bispecific antibody, human IgG1, kappa)
VH (DR5)-Fc part-VH (FAP)-CL chain: not shown
VL (DR5)-kappa light chain: B1 VL (DR5)-kappa light chain with Q93S, L94N, P95Q, I97V
VLCH1 (FAP) chain: B1 VLCH1 (FAP) chain
B7: DR5TAA-0039 (bispecific antibody, human IgG1, kappa)
VH (DR5)-Fc part-VH (FAP)-CL chain: not shown
VL (DR5)-kappa light chain: B1 VL (DR5)-kappa light chain with Q93E, L94S, I97P
VLCH1 (FAP) chain: B1 VLCH1 (FAP) chain
notes: also called DR5 (20F2)-28H1 VHCL 2 + 2
B8: DR5TAA-0067 (antibody, human IgG1, kappa, L234A L235A, V domains shown)
VH: EVQLVETGGGLIQPGGSLRLSCAASGFTVSRYAMIWVRQAPGKGLEYIGFITSDGSTYYADSAKGRFTISRDNSKNTLYLQMNSLRAEDTAVYYCARYTYSDGTDLWGRGTLVTVSS
VL: DIQMTQSPSTLSASVGDRVTITCRASQSISTYLSWYQQKPGKAPKRLIYKASSLASGVPSRFSGSGSGTEFTLTISSLQPDDAATYYCQPNSGIATYGAAFGGGTKVEIKR
notes: humanized variant of DR5TAA-0011; also called VH7/VL15
B9: DR5TAA-0074 (antibody, human IgG1, kappa, L234A L235A, V domains shown)
VH: B8 VH
VL: B8 VL with T10S, K42Q, A43P, S53T, E70D, D81E, A83F
notes: humanized variant of DR5TAA-0011; also called VH7/VL10
B10: DR5TAA-0073 (antibody, human IgG1, kappa, L234A L235A, V domains shown)
VH: QVQLVESGGGLVQPGGSLRLSCSASGFSISRYAMIWVRQAPGKGLEYVGFITSDSSAYYASWAKGRFTISRDNSKNTLYLQMNSLRAEDTAVYYCARYTYSDGTDLWGQGTLVTVSS
VL: B8 VL with T10S, S53T, E70D, D81E
notes: humanized variant of DR5TAA-0011; also called VH17/VL3
B11: DR5TAA-0068 (antibody, human IgG1, kappa, L234A L235A, V domains shown)
VH: B10 VH
VL: B8 VL with T10S, K42Q, A43P, S53T, E70D, D81E, A83F
notes: humanized variant of DR5TAA-0011; also called VH17/VL10
B12: DR5TAA-0066 (antibody, human IgG1, kappa, L234A L235A, V domains shown)
VH: B8 VH
VL: B8 VL with T10S, S53T, E70D, D81E
notes: humanized variant of DR5TAA-0011; also called VH7/VL3
B13: DR5TAA-0075 (antibody, human IgG1, kappa, L234A L235A, V domains shown)
VH: B8 VH
VL: B8 VL with T10S, R24Q, K42Q, A43P, S53T, E70D, D81E, A83F
notes: humanized variant of DR5TAA-0011; also called VH7/VL11
B14: DR5TAA-0071 (antibody, human IgG1, kappa, L234A L235A)
heavy: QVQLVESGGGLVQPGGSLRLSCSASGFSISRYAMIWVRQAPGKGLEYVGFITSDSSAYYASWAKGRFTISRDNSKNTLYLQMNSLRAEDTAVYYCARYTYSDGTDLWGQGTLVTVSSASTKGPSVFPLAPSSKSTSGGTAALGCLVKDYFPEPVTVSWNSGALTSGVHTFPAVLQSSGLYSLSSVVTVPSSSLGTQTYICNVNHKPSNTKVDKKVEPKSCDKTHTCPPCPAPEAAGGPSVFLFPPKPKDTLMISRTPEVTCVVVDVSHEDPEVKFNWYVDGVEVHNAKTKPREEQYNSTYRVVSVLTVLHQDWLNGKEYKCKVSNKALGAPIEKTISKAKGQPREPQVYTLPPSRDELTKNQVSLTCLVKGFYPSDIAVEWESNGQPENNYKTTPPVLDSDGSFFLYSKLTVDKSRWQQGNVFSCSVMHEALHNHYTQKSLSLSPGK
light: ADIQMTQSPSTLSASVGDRVTITCRASQSISTYLSWYQQKPGKAPKRLIYKASSLASGVPSRFSGSGSGTEFTLTISSLQPDDAATYYCQPNSGIATYGAAFGGGTKVEIKRTVAAPSVFIFPPSDEQLKSGTASVVCLLNNFYPREAKVQWKVDNALQSGNSQESVTEQDSKDSTYSLSSTLTLSKADYEKHKVYACEVTHQGLSSPVTKSFNRGEC
notes: humanized variant of DR5TAA-0011; also called VH17/VL15
B15: DR5TAA-0072 (antibody, human IgG1, kappa, L234A L235A)
heavy: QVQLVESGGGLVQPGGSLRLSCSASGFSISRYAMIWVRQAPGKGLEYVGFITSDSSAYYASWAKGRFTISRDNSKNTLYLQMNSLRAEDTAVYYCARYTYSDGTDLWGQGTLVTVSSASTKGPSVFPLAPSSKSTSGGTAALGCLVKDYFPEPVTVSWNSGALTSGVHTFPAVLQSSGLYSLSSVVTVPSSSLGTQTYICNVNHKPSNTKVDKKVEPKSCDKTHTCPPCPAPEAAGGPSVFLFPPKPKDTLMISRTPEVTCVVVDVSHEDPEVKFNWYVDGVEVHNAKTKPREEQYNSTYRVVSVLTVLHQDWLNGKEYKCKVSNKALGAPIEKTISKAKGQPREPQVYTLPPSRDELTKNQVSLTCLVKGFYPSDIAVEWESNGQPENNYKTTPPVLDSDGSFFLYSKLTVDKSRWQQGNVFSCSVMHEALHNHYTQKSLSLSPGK
light: DIQMTQSPSTLSASVGDRVTITCRASQSISTYLSWYQQKPGKAPKRLIYKASSLASGVPSRFSGSGSGTEFTLTISSLQPDDAATYYCQPNSGIATYGAAFGGGTKVEIKRTVAAPSVFIFPPSDEQLKSGTASVVCLLNNFYPREAKVQWKVDNALQSGNSQESVTEQDSKDSTYSLSSTLTLSKADYEKHKVYACEVTHQGLSSPVTKSFNRGEC
notes: humanized variant of DR5TAA-0011; also called VH17/VL2
B16: DR5TAA-0052 (antibody, human IgG1, kappa, L234A L235A, V domains shown)
VH: QSVEESGGRLVTPGTPLTLTCTVSGFSISRYAMIWVRQAPGEGLEYIGFITSDSSAYYASWAKGRFTISKTSTTVDLKMTSPTTEDTATYFCARYTYSDGTDLWGPGTLVTVSS
VL: DIVMTQTPASVSEPVGGTVTIKCQASQSISTYLSWYQQKPGQPPKRLIYKASTLASGVPSRFKGSGSGTDFTLTIRDLESADAATYYCQPNSGIATYGAAFGGGTEVVVKR
notes: rabbit variable, human constant regions; also called chimeric form of DR5TAA-0011; chimeric variant

What follows are binders tested against T1, Murine FAP ectodomain + poly-lys-tag + his6-tag (murine, UniProt P97321 27-761) (assay: SPR (Biacore), bispecific antibody bound to immobilised human DR5-Fc, recombinant murine FAP as second analyte (simultaneous binding)).
T1 construct: also called recombinant soluble murine FAP
T1 sequence (P97321 other isoform, or with tags, fused parts or gaps): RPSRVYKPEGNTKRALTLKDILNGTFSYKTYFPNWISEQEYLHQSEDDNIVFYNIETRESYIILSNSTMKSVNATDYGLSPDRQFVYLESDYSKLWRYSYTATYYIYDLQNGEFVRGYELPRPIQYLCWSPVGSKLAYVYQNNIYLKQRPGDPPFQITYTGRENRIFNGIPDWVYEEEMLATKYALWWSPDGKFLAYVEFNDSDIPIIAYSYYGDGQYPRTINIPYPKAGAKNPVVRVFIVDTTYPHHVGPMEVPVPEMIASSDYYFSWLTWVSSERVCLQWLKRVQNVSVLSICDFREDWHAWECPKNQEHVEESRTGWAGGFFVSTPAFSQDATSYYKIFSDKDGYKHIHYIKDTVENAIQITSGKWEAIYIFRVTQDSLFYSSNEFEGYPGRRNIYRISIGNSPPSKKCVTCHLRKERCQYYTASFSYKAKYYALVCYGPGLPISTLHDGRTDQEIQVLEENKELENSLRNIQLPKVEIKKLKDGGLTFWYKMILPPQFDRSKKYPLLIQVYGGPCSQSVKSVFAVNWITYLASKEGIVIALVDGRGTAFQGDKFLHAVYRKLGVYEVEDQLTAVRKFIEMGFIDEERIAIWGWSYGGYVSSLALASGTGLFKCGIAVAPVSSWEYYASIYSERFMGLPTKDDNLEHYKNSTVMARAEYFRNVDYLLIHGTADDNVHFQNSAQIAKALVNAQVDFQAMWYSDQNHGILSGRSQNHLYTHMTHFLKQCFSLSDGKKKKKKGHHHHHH

Binder | binding result
B1 | binds
B2 | binds
B3 | binds
B4 | binds
B5 | binds
B6 | binds
B7 | binds

What follows are binders tested against T2, Human FAP ectodomain + poly-lys-tag + his6-tag (human, UniProt Q12884 27-760) (assay: SPR (Biacore), bispecific antibody bound to immobilised human DR5-Fc, recombinant human FAP as second analyte (simultaneous binding)).
T2 construct: also called recombinant soluble human FAP; hFAP

Binder | binding result
B1 | binds
B2 | binds
B3 | binds
B4 | binds
B5 | binds
B6 | binds
B7 | binds

What follows are binders tested against T3, human DR5 (recombinant, fusion format not stated for the assay) (human, UniProt O14763 56-207) (assay: binding to human DR5 after stress test, pH 7.4, 2 weeks 40° C., against non-stressed initial material (defined 100%)).
T3 construct: all antigen constructs carry ECD aa 56-207; also called hu DR5; huDR5

Binder | Relative active concentration as compared to the initial state
B8 | 107%
B9 | 100%
B10 | 101%
B11 | 101%
B12 | 100%
B13 | 99%
B14 | 98%
B15 | 101%

The binders below were run against T4, human DR5 ECD-Avi-his (human, UniProt O14763 56-207) (assay: SPR (BIAcore 3000), antibody captured by anti-human Fc, monomeric DR5 injected).
T4 construct: also called recombinant human DR5 (monomeric His-Avi fusion protein); monomeric human DR5

Binder | Kd | koff | kon
B16 | 0.007 µM | 0.0024 s⁻¹ | 350000 M⁻¹ s⁻¹
B8 | 0.02 µM | 0.0052 s⁻¹ | 260000 M⁻¹ s⁻¹
B9 | 0.021 µM | 0.0056 s⁻¹ | 270000 M⁻¹ s⁻¹
B13 | 0.017 µM | 0.0056 s⁻¹ | 320000 M⁻¹ s⁻¹
B14 | 0.015 µM | 0.0046 s⁻¹ | 300000 M⁻¹ s⁻¹

These binders were tested against T3, human DR5 (recombinant, fusion format …) (assay: binding to human DR5 after stress test, pH 6.0, 2 weeks 40° C., against non-stressed initial material (defined 100%)).

Binder | Relative active concentration as compared to the initial state
B8 | 107%
B9 | 103%
B10 | 104%
B11 | 103%
B12 | 102%
B13 | 102%
B14 | 103%
B15 | 105%
